Test results published in US20220010021A1 (Sanofi, published 2022).
Where a chain is given by its changes, count along the chain named. Names and notes keep the numbering of the source.

Experiments:
[1] = target: human FGFR1c/KLB receptor complex on iLite FGF21 Assay Ready Cells (human, UniProt P11362 22-822; Q86Z14 1-1044); assay: cell-based or functional assay; as to Mean E max (%): reference of the scale not given here
human beta-Klotho (KLB) = target: T1, human beta-Klotho (KLB) (human, UniProt Q86Z14 53-997); assay: BLI off-rate screening, mAb captured, KLB analyte;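 also: Off-rate taken from the dissociation phase, biosensors held in D-PBS with 0.1% BSA over 1800 s, antibody supernatants diluted to 25 µg/mL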
T1 construct: bought protein, used as analyte in the off-rate screening; also called human KLB; β-Klotho
T1 sequence (looked up): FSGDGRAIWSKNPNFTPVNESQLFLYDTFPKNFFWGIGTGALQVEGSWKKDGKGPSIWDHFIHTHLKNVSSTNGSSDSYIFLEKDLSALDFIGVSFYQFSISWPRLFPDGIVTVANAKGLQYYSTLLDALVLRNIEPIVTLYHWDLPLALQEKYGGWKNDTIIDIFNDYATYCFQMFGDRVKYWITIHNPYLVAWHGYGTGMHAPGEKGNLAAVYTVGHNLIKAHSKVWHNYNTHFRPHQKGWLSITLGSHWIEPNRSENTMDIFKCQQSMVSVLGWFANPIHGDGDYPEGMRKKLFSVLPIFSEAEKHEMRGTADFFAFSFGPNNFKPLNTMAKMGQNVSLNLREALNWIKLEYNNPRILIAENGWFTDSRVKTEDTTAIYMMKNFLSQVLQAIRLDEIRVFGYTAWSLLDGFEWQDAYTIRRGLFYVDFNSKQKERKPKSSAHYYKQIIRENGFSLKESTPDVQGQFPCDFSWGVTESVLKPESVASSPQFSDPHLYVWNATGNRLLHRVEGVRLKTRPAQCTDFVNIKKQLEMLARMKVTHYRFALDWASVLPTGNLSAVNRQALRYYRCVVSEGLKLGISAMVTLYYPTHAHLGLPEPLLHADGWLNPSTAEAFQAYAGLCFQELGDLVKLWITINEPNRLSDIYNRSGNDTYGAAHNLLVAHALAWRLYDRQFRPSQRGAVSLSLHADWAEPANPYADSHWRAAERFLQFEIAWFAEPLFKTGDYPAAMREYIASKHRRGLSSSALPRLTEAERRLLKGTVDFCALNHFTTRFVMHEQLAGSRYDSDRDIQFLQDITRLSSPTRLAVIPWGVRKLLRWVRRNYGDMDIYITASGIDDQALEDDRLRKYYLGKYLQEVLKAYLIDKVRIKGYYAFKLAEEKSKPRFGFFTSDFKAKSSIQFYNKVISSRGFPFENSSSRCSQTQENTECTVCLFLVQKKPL

Sequence of human FGFR1c/KLB receptor complex on iLite FGF21 Assay Ready Cells (P11362 22-822, chain 1 of 2): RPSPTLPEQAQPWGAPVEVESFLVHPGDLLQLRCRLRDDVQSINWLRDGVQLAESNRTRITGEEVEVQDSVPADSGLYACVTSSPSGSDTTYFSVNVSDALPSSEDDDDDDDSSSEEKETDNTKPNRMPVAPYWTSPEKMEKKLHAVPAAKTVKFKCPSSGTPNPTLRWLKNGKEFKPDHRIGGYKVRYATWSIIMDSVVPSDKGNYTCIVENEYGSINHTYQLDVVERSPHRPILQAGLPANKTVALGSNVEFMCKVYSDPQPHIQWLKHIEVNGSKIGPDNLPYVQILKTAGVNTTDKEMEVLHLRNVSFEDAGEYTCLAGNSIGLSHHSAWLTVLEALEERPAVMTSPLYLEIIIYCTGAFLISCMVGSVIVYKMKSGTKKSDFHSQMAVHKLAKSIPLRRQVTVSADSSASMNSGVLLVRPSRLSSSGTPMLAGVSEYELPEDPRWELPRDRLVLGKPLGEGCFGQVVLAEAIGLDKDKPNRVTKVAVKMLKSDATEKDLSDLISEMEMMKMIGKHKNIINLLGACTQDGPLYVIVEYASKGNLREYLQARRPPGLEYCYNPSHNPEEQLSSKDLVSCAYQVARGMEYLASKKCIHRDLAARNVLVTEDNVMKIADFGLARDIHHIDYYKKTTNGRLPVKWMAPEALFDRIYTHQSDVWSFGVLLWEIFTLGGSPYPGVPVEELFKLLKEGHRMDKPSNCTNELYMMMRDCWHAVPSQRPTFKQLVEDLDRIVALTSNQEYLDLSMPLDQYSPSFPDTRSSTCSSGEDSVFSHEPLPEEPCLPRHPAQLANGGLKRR
Sequence of human FGFR1c/KLB receptor complex on iLite FGF21 Assay Ready Cells (Q86Z14 whole entry, chain 2 of 2): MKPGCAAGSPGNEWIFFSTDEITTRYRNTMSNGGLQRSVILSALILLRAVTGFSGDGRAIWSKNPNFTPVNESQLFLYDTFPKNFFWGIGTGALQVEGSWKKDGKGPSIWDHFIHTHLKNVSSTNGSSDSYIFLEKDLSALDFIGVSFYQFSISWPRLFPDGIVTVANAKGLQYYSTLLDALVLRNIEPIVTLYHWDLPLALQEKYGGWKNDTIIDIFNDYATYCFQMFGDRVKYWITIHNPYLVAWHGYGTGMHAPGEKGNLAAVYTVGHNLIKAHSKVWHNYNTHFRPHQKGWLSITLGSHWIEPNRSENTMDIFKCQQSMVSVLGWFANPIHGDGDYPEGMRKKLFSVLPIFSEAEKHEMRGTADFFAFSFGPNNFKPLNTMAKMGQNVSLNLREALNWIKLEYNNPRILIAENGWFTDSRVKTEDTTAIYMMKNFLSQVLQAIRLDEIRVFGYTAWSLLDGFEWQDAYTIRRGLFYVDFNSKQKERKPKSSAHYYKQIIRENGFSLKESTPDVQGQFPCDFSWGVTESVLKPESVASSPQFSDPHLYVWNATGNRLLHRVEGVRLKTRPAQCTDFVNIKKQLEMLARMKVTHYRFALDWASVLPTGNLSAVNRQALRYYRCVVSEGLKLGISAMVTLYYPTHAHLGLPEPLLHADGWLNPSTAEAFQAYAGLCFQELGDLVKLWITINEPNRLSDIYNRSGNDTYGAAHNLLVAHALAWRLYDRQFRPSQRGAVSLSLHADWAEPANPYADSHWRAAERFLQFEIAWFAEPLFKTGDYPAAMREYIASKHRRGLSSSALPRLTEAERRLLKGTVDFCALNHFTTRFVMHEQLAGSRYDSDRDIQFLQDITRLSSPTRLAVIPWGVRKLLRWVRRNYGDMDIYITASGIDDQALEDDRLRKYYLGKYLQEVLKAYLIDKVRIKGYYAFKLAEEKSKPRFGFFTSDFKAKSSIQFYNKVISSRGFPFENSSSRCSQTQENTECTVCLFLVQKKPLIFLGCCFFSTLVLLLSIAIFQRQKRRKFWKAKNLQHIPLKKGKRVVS

B1: 16H7 variant with light chain substitution D52S (antibody, V domains shown)
VH: not shown
VL: SYVLTQPPSVSVAPGQTARITCGGNNIGSESVHWYQQKPGQAPVLVVYDDSSRPSGIPERFSGSNSGNTATLTISRVEAGDEADYYCQVWDGNSDHVVFGGGTKLTVLG
Q: For B1, which “Mean E max (%)” value [1] is on record?
A: 108%

Q: What about the “Mean EC50” value [1] of the same binder?
A: 0.098 nM

Q: And the koff (human beta-Klotho (KLB))?
A: 4e-05 s⁻¹

B2: 16H7 variant with light chain substitution P54H (antibody, V domains shown)
VH: not shown
VL: B1 VL with S52D, P54H
Q: How did the “Mean E max (%)” value [1] turn out when B2 was run?
A: 100%

Q: And the “Mean EC50” value [1]?
A: 0.111 nM

Q: What about the koff (human beta-Klotho (KLB)) of the same binder?
A: 0.00014 s⁻¹

B3: 16H7 variant with light chain substitution P54T (antibody, V domains shown)
VH: not shown
VL: B1 VL with S52D, P54T
Q: With B3 as the binder, how does the “Mean E max (%)” value [1] read?
A: 108%

Q: What about the “Mean EC50” value [1] of the same binder?
A: 0.113 nM

Q: What about the koff (human beta-Klotho (KLB)) of the same binder?
A: 0.00018 s⁻¹

B4: 16H7 variant with light chain substitution R53I (antibody, V domains shown)
VH: not shown
VL: B1 VL with S52D, R53I
Q: For B4, which “Mean E max (%)” value [1] is on record?
A: 100%

Q: And the “Mean EC50” value [1]?
A: 0.151 nM

Q: And the koff (human beta-Klotho (KLB))?
A: 1.7e-05 s⁻¹

B5: 16H7 variant with light chain substitution R53H (antibody, V domains shown)
VH: not shown
VL: B1 VL with S52D, R53H
Q: For B5, which “Mean E max (%)” value [1] is on record?
A: 103%

Q: What about the “Mean EC50” value [1] of the same binder?
A: 0.153 nM

Q: What about the koff (human beta-Klotho (KLB)) of the same binder?
A: 0.00015 s⁻¹

B6: 16H7 variant with light chain substitution R53Q (antibody, V domains shown)
VH: not shown
VL: B1 VL with S52D, R53Q
Q: Which results are given for B6?
A: Mean E max (%) [1]: 100%; Mean EC50 [1]: 0.131 nM; koff (human beta-Klotho (KLB)): 0.00024 s⁻¹

B7: 16H7 variant with light chain substitution P54C (antibody, V domains shown)
VH: not shown
VL: B1 VL with S52D, P54C
Q: With B7 as the binder, how does the “Mean E max (%)” value [1] read?
A: 100%

Q: And the “Mean EC50” value [1]?
A: 0.116 nM

Q: And the koff (human beta-Klotho (KLB))?
A: 0.00012 s⁻¹

B8: 16H7 variant with light chain substitution R53K (antibody, V domains shown)
VH: not shown
VL: B1 VL with S52D, R53K
Q: What does the source list for B8?
A: Mean E max (%) [1]: 98%; Mean EC50 [1]: 0.114 nM; koff (human beta-Klotho (KLB)): 4e-05 s⁻¹

B9: 16H7 variant with light chain substitution D52V (antibody, V domains shown)
VH: not shown
VL: B1 VL with S52V
Q: With B9 as the binder, how does the “Mean E max (%)” value [1] read?
A: 114%

Q: What about the “Mean EC50” value [1] of the same binder?
A: 0.125 nM

Q: And the koff (human beta-Klotho (KLB))?
A: 6.9e-05 s⁻¹

B10: 16H7 variant with light chain substitution P54K (antibody, V domains shown)
VH: not shown
VL: B1 VL with S52D, P54K
Q: What does the source list for B10?
A: Mean E max (%) [1]: 100%; Mean EC50 [1]: 0.131 nM; koff (human beta-Klotho (KLB)): 0.00016 s⁻¹

B11: 16H7 variant with light chain substitution D52T (antibody, V domains shown)
VH: not shown
VL: B1 VL with S52T
Q: Which results are given for B11?
A: Mean E max (%) [1]: 100%; Mean EC50 [1]: 0.109 nM; koff (human beta-Klotho (KLB)): 1.8e-05 s⁻¹

B12: 16H7 variant with light chain substitution R53P (antibody, V domains shown)
VH: not shown
VL: B1 VL with S52D, R53P
Q: Which “Mean E max (%)” value [1] does the source give for B12 here?
A: 92%

Q: And the “Mean EC50” value [1]?
A: 0.126 nM

Q: And the koff (human beta-Klotho (KLB))?
A: 0.00028 s⁻¹

B13: 16H7 variant with light chain substitution P54M (antibody, V domains shown)
VH: not shown
VL: B1 VL with S52D, P54M
Q: With B13 as the binder, how does the “Mean E max (%)” value [1] read?
A: 98%

Q: What about the “Mean EC50” value [1] of the same binder?
A: 0.087 nM

Q: And the koff (human beta-Klotho (KLB))?
A: 3.2e-05 s⁻¹

B14: 16H7 variant with light chain substitution P54S (antibody, V domains shown)
VH: not shown
VL: B1 VL with S52D, P54S
Q: With B14 as the binder, how does the “Mean E max (%)” value [1] read?
A: 102%

Q: And the “Mean EC50” value [1]?
A: 0.103 nM

Q: And the koff (human beta-Klotho (KLB))?
A: 7.9e-05 s⁻¹

B15: 16H7 variant with light chain substitution P54Y (antibody, V domains shown)
VH: not shown
VL: B1 VL with S52D, P54Y
Q: What does the source list for B15?
A: Mean E max (%) [1]: 110%; Mean EC50 [1]: 0.15 nM; koff (human beta-Klotho (KLB)): 8.3e-05 s⁻¹

B16: 16H7 variant with light chain substitution P54G (antibody, V domains shown)
VH: not shown
VL: B1 VL with S52D, P54G
Q: For B16, which “Mean E max (%)” value [1] is on record?
A: 114%

Q: And the “Mean EC50” value [1]?
A: 0.141 nM

Q: And the koff (human beta-Klotho (KLB))?
A: 5.1e-05 s⁻¹

B17: 16H7 variant with light chain substitution P54W (antibody, V domains shown)
VH: not shown
VL: B1 VL with S52D, P54W
Q: What does the source list for B17?
A: Mean E max (%) [1]: 98%; Mean EC50 [1]: 0.091 nM; koff (human beta-Klotho (KLB)): 0.00017 s⁻¹

B18: 16H7 variant with light chain substitution R53M (antibody, V domains shown)
VH: not shown
VL: B1 VL with S52D, R53M
Q: Which results are given for B18?
A: Mean E max (%) [1]: 95%; Mean EC50 [1]: 0.099 nM; koff (human beta-Klotho (KLB)): 0.00018 s⁻¹

B19: 16H7 variant with light chain substitution P54D (antibody, V domains shown)
VH: not shown
VL: B1 VL with S52D, P54D
Q: What does the source list for B19?
A: Mean E max (%) [1]: 96%; Mean EC50 [1]: 0.115 nM; koff (human beta-Klotho (KLB)): 0.00028 s⁻¹

B20: 16H7 variant with light chain substitution R53C (antibody, V domains shown)
VH: not shown
VL: B1 VL with S52D, R53C
Q: With B20 as the binder, how does the “Mean E max (%)” value [1] read?
A: 107%

Q: What about the “Mean EC50” value [1] of the same binder?
A: 0.147 nM

Q: What about the koff (human beta-Klotho (KLB)) of the same binder?
A: 0.00044 s⁻¹

B21: 16H7 variant with light chain substitution P54F (antibody, V domains shown)
VH: not shown
VL: B1 VL with S52D, P54F
Q: How did the “Mean E max (%)” value [1] turn out when B21 was run?
A: 105%

Q: What about the “Mean EC50” value [1] of the same binder?
A: 0.143 nM

Q: What about the koff (human beta-Klotho (KLB)) of the same binder?
A: 0.00012 s⁻¹

B22: 16H7 variant with light chain substitution P54I (antibody, V domains shown)
VH: not shown
VL: B1 VL with S52D, P54I
Q: Which “Mean E max (%)” value [1] does the source give for B22 here?
A: 112%

Q: What about the “Mean EC50” value [1] of the same binder?
A: 0.115 nM

Q: And the koff (human beta-Klotho (KLB))?
A: 3.5e-05 s⁻¹

B23: 16H7 variant with light chain substitution P54V (antibody, V domains shown)
VH: not shown
VL: B1 VL with S52D, P54V
Q: With B23 as the binder, how does the “Mean E max (%)” value [1] read?
A: 109%

Q: What about the “Mean EC50” value [1] of the same binder?
A: 0.11 nM

Q: And the koff (human beta-Klotho (KLB))?
A: 4.1e-05 s⁻¹

B24: 16H7 variant with light chain substitution R53A (antibody, V domains shown)
VH: not shown
VL: B1 VL with S52D, R53A
Q: What does the source list for B24?
A: Mean E max (%) [1]: 89%; Mean EC50 [1]: 0.132 nM; koff (human beta-Klotho (KLB)): 0.0002 s⁻¹

B25: 16H7 variant with light chain substitution P54L (antibody, V domains shown)
VH: not shown
VL: B1 VL with S52D, P54L
Q: With B25 as the binder, how does the “Mean E max (%)” value [1] read?
A: 108%

Q: And the “Mean EC50” value [1]?
A: 0.133 nM

Q: And the koff (human beta-Klotho (KLB))?
A: 9.6e-05 s⁻¹

B26: 16H7 variant with light chain substitution D52Y (antibody, V domains shown)
VH: not shown
VL: B1 VL with S52Y
Q: Which “Mean E max (%)” value [1] does the source give for B26 here?
A: 102%

Q: And the “Mean EC50” value [1]?
A: 0.11 nM

Q: And the koff (human beta-Klotho (KLB))?
A: 9.1e-05 s⁻¹

B27: 16H7 variant with light chain substitution R53L (antibody, V domains shown)
VH: not shown
VL: B1 VL with S52D, R53L
Q: Which “Mean E max (%)” value [1] does the source give for B27 here?
A: 106%

Q: What about the “Mean EC50” value [1] of the same binder?
A: 0.151 nM

Q: What about the koff (human beta-Klotho (KLB)) of the same binder?
A: 2e-05 s⁻¹

B28: 16H7 variant with light chain substitution P54N (antibody, V domains shown)
VH: not shown
VL: B1 VL with S52D, P54N
Q: For B28, which “Mean E max (%)” value [1] is on record?
A: 105%

Q: What about the “Mean EC50” value [1] of the same binder?
A: 0.15 nM

Q: What about the koff (human beta-Klotho (KLB)) of the same binder?
A: 0.00014 s⁻¹
